{"source": "FireProtDB (doi:10.1093/protein/10.5.575)", "parents": {"B1": {"name": "Cytochrome b5, P00171 (parent)", "chain": "MAEESSKAVKYYTLEEIQKHNNSKSTWLILHYKVYDLTKFLEEHPGGEEVLREQAGGDATENFEDVGHSTDARELSKTFIIGELHPDDRSKITKPSESIITTIDSNPSWWTNWLIPAISALFVALIYHLYTSEN"}}, "variants_of": "B1", "settings": "Bos taurus, pH 7, Absorbance, phosphate 0.1 M, reversible: yes, structure 1CYO, whole UniProt chain shown", "data": [{"variant": "F40H", "values": [{"measurement": "ddG of mutation (higher = less stable)", "setting": "66.2 °C, Thermal", "value": 2.82, "unit": "kcal/mol"}, {"measurement": "Tm", "setting": "Thermal", "value": 54.9, "unit": "°C"}, {"measurement": "change of melting temperature, mutant - wild type (higher = more stable)", "setting": "Thermal", "value": -11.3, "unit": "°C"}, {"measurement": "unfolding enthalpy (van 't Hoff)", "setting": "Thermal", "value": 94.7, "unit": "kcal/mol"}]}, {"variant": "F40L", "values": [{"measurement": "ddG of mutation (higher = less stable)", "setting": "30 °C, Urea", "value": 1.87, "unit": "kcal/mol"}, {"measurement": "denaturant midpoint (higher = more stable)", "setting": "30 °C, Urea", "value": 4.9, "unit": "M"}, {"measurement": "ddG of mutation (higher = less stable)", "setting": "66.2 °C, Thermal", "value": 1.87, "unit": "kcal/mol"}, {"measurement": "Tm", "setting": "Thermal", "value": 59.1, "unit": "°C"}, {"measurement": "change of melting temperature, mutant - wild type (higher = more stable)", "setting": "Thermal", "value": -7.1, "unit": "°C"}, {"measurement": "unfolding enthalpy (van 't Hoff)", "setting": "Thermal", "value": 104, "unit": "kcal/mol"}]}, {"variant": "F40Y", "values": [{"measurement": "ddG of mutation (higher = less stable)", "setting": "30 °C, Urea", "value": -1.03, "unit": "kcal/mol"}, {"measurement": "denaturant midpoint (higher = more stable)", "setting": "30 °C, Urea", "value": 8.3, "unit": "M"}, {"measurement": "ddG of mutation (higher = less stable)", "setting": "66.2 °C, Thermal", "value": -0.79, "unit": "kcal/mol"}, {"measurement": "unfolding enthalpy (van 't Hoff)", "setting": "66.2 °C, Thermal", "value": 86.4, "unit": "kcal/mol"}, {"measurement": "Tm", "setting": "Thermal", "value": 69.6, "unit": "°C"}, {"measurement": "change of melting temperature, mutant - wild type (higher = more stable)", "setting": "Thermal", "value": 3.4, "unit": "°C"}, {"measurement": "unfolding enthalpy (van 't Hoff)", "setting": "Thermal", "value": 86.4, "unit": "kcal/mol"}]}]}
